Values quoted from earlier work, collected in publication PMC3193156.

Columns and labels:
Cys117 = conditions: Resting state (free reduced enzyme)
His103 = conditions: Resting state (free reduced enzyme)
Cys95 = Cys95 (UniProt position 95, GQSRFCIFSSS); experiment: NMR
His80 = His80 (UniProt position 80, GNGLGHEFLND); experiment: NMR

## Methionine sulfoxide reductase B (MsrB domain of PilB) (Neisseria meningitidis)
Cys117
  pKa: 9.3
His103
  pKa: 6.6

## Methionine-R-sulfoxide reductase B1 (MsrB1, selenoprotein R), Cys95 form (Mus musculus; U95C)
Cys95
  pKa: 6.0
His80
  pKa: 5.7
